Measurements: patent US20220242973A1 (Molecular Partners, published 2022)

T1: Recombinant human FAP (fibroblast activation protein) (human, UniProt Q12884 26-760)
T1 sequence (looked up): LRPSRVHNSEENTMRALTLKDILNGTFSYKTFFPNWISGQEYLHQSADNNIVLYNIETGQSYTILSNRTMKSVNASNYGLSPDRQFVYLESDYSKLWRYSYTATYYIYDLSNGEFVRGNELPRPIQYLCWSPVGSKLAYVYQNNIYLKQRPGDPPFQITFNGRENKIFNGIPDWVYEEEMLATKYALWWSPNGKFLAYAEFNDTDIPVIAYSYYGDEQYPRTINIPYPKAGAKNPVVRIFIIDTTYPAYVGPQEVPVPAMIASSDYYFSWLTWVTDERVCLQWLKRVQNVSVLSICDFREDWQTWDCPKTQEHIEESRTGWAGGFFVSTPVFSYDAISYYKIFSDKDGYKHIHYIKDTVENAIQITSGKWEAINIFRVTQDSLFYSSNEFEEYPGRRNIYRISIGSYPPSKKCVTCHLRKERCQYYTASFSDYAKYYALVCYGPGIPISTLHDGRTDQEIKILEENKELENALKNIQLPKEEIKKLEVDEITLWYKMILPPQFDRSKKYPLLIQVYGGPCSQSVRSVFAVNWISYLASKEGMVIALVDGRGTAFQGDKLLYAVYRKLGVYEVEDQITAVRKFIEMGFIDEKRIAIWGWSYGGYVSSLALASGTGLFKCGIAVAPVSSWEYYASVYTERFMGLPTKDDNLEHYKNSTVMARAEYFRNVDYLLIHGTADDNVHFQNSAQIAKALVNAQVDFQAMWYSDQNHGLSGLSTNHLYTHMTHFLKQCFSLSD

T2: Human FAP expressed on the cell surface (WI38, CHO-FAP1.9, U87MG cells) (human, UniProt Q12884 1-760)
T2 construct: whole, on cells; Endogenous on WI38 and U87MG cells; from a human FAP cDNA (OriGene) in CHO-FAP1.9 cells; also called hFAP; FAP+ cells
T2 sequence (looked up): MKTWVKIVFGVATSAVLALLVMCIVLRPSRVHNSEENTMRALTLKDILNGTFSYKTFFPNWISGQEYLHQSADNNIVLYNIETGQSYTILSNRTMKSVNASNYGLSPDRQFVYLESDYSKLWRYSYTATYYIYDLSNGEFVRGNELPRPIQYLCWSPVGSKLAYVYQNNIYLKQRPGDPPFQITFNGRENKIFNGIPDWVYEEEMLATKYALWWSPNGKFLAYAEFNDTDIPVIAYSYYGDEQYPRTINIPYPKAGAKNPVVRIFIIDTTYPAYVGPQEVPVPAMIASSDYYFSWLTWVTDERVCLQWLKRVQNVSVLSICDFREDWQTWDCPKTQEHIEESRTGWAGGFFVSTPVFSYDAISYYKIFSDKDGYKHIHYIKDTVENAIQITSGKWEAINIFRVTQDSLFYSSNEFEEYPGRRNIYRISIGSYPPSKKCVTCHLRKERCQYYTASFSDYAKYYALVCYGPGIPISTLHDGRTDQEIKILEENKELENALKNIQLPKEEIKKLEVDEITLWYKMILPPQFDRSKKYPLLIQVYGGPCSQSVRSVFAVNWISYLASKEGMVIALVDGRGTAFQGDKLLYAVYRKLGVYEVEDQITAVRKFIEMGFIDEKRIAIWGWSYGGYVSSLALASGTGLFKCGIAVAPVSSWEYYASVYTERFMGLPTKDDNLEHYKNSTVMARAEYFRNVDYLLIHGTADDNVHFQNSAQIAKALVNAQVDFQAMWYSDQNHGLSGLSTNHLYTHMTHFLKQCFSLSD


Assays:
[1] = target: T1, Recombinant human FAP (fibroblast …); assay: cell-based or functional assay
[2] = target: T2, Human FAP expressed on the cell surface …; assay: FACS on FAP-expressing WI38 cells, Penta-His AF647 detection
Protocol: Using multi-well plates, 20,000 WI38 cells were added per well in 50 μl of PBS. 50 μl of appropriate dilutions (2× dilution steps) of ankyrin repeat protein was then added to the cells and incubated for 30 minutes on ice. After the ankyrin repeat protein-binding reaction, cells were washed twice with PBS. Direct immunofluorescent detection of the His-tagged ankyrin repeat proteins using Penta-His AF647 conjugate (QIAgen) and determination of live cells using LIVE/DEAD™ Fixable Green Dead Cell Stain Kit (ThermoFisher) were then performed together in one step. The Penta-His AF647 conjugate and the LIVE/DEAD™ Fixable Green dye were applied to the cells together in 1/200 (Penta-His) and 1/1000 (LID Fixable) final dilutions and incubated for 20-30 minutes on ice. After washing the cells with PBS, cells were re-suspended in 1× CellFix™ buffer (BD Biosciences) (10× stock was diluted 1/10 in water). The samples were incubated in CellFix™ buffer for 15-20 minutes at RT, then spun down at 400 g for 5 min. Supernatant was discarded and cells were re-suspended in 200 μl PBS and stored at 4° C. until acquisition and FACS analysis. Acquisition and FACS analysis, including the determination of median fluorescence intensity (MFI), were done within 5 days after staining using an AttuneNxT instrument. Binding curves were fitted by non-linear regression curve fitting using GraphPad Prism software (v 7.0.4).
EC₅₀ values were determined using standard procedures known to the person skilled in the art. […] Table 2 provides the EC₅₀ values of selected ankyrin repeat proteins as examples.

[3] = target: T1, Recombinant human FAP (fibroblast …); assay: SPR (ProteOn), human FAP immobilized on GLC chip
Protocol: Briefly, human FAP was diluted in 10 mM Na-acetate pH 5.3 buffer and covalently immobilized on a GLC chip (BioRad) to a level of around 2000 resonance units (RU). The interaction of ankyrin repeat protein and hFAP was then measured by injecting 200 μl running buffer (PBS, pH 7.4 containing 0.005% Tween 20®) containing serial dilutions of ankyrin repeat proteins covering a concentration range between 30 nM and 0.5 nM (on-rate measurement), followed by a running buffer flow for at least 25 minutes at a constant flow rate of 100 μl/min (off-rate measurement). The regeneration was performed using 15 μl of 10 mM Glycine pH 2 followed by 15 μl of 124 mM H₃PO₄. The signals (i.e. resonance unit (RU) values) of the interspots and a reference injection (i.e. injection of running buffer only) were subtracted from the RU traces obtained after injection of ankyrin repeat protein (double-referencing). Based on the SPR traces obtained from the on-rate and off-rate measurements, the on- and off-rate of the corresponding ankyrin repeat protein—FAP interaction was determined.
Dissociation constants (KD) were calculated from the estimated on- and off-rates using standard procedures known to the person skilled in the art. […] Table 1 provides the KD values of some selected ankyrin repeat proteins as examples.

Binder	FAP activity (%) [1] [%]	EC50 [2] [nM]	Kd [3] [nM]
DARPin® protein #1 (designed binder) MRGSHHHHHHGSYPYDVPDYAGSDLGKKLLEAARAGQDDEVRILLAAGADVNAKDQYGITPLHLAAFRGHLEIVEVLLKHGAGVNADDMDGRTPLHPAAYKGHLEIVEVLLKNGADVNAQDKFGKTAFDISIDNGNEDLAEILQKLN	115	3.17	3.6
DARPin® protein #10 (designed binder) MRGSHHHHHHGSYPYDVPDYAGSDLGKKLLEATRAGQDDEVRILLAAGADVNAKDEYGITPLHLAAFRGHLEIVEVLLKHGADVNAIDYNGRTPLHPAAYSGHLEIVEVLLKYGADVNAQDKFGKTAFDISIDNGNEDLAEILQKLN	120	0.512	10.4
DARPin® protein #11 (designed binder) MRGSHHHHHHGSYPYDVPDYAGSDLGKKLLEAARAGQDDEVRILLAAGADVNAKDTWGWTPLHLAAKSGHLEIVEVLLKAGADVNAKDYHGVTPLHLATFWGHLEIVEVLLKAGADVNAKDWYGETPLHLAAIRGHLEIVEVLLKAGADVNAQDKSGKTPADLAADAGHEDIAEVLQKLN	117	0.523	0.057
DARPin® protein #12 (designed binder) MRGSHHHHHHGSYPYDVPDYAGSDLGKKLLEAARAGQDDEVRILLAAGADVSAKDQWGWTPLHLAARVGHLEIVEVLLKAGADVNAKDVRGVTPLHLAAFHGHLEIVEVLLKAGADVNAKDYAGHTPLHLAAWQGHLEIIEDLLKAGADVNAQDKSGKTPADLAADAGHEDIAEVLQKLN	114	0.789	0.194
DARPin® protein #13 (designed binder) MRGSHHHHHHGSYPYDVPDYAGSDLGKKLLEAARAGQDDEVRILLAAGADVNAKDDWGWTPLHLAARHGHLEIVEVLLKAGTDVNAKDKRGVTPLHLAAYIGHLEIAEVLLKAGADVNAKDFQGWTPLHLAAVRGHLEIVEVLLKAGADVNAQDKSGKTPADLAADAGHEDIAEVLQKLN	88	0.307	0.01
DARPin® protein #17 (designed binder) MRGSHHHHHHGSYPYDVPDYAGSDLGKKLLEAARAGQDDEVRILMANGADVNATDLMGRTPLHLAASRGHLEIVEVLLKNGADVNADDKYGITSLHLAAFLGHLEIVEVLLKYGADVNAIDFDGRTPLHPAAYRGHLEIVEVLLKHGADVNAQDKFGQTAFDISIDNGNEDLAEILQKLN	96		0.063
DARPin® protein #16 (designed binder) MRGSHHHHHHGSYPYDVPDYAGSDLGKKLLEAARAGQDDEVRILMANGTDVNATDMTGRTPLHLAALYGHLEIVEVLLKYGADVNALDKFGITPLHLAAFMGHLEIVEVLLKYGADVNAADLDGRTPLHPTAYRGHLEIVEVLLKNGADVNAQDKFGKTAFDISIDNGNEDLAEILQKLN	97		0.023
DARPin® protein #20 (designed binder) MRGSHHHHHHGSYPYDVPDYAGSDLGEKLLIAALFGQDEEVRILLAAGADVNAKDEWGHTPLHKAALSGHLEIVEVLLKAGADVNAKDQKGSTPLHWAATRGHLEIVEVLLKAGADVNAQDHIGRTPADLAANFGHEDIAEVLQKLN	104		0.115
DARPin® protein #5 (designed binder) MRGSHHHHHHGSYPYDVPDYAGSDLGYTLLEAARRGQDDEVRELLKAGADVNAKDTIGYTPLHYAAQVGHLEIVEVLLKAGADVNAKDTQGITPLHVAAATGHLEIVEVLLKAGADVNAQDSKGRTPADLAAEQGHEDIAEVLQKLN	103	0.654	
DARPin® protein #25 (designed binder) MRGSHHHHHHGSYPYDVPDYAGSDLGYKLLEAARRGQDDEVRELLKAGADVNAKDVIGYTPLHYAASEGHLEIVEVLLKAGADVNAKDTKGITPLHVAASTGHLEIVEVLLKAGADVNAQDLRGYTPADLAARQGHEDIGEVLQKLN	110		
DARPin® protein #6 (designed binder) MRGSHHHHHHGSYPYDVPDYAGSDLGKKLLEAARAGQDDEVRELLKAGADVNAKDEWGKTPLHYAAALGHLEIVEVLLKAGADVNAKDQYGATPLHIAAFAGHLEIVEVLLKAGADVNAKDAWGFTPLHLAATRGHLEIVEVLLKAGADVNAQDKSGKTPADLAADAGHEDIVEVLQKLN	146		0.303
DARPin® protein #8 (designed binder) MRGSHHHHHHGSYPYDVPDYAGSDLGKKLLEAARAGQDDEVRELLKAGADVNAKDQHGKTPLHYAAALGHLEIVEVLLKAGADVNAKDRWGATPLHIAAFAGHLEIVEVLLKAGADVNAKDEVGWTPLHLAARFGHLEIVEVLLKAGADVNAQDKSGKTPADLAADAGHEDIVEVLQKLN	97		0.12
DARPin® protein #31 (designed binder) MRGSHHHHHHGSYPYDVPDYAGSDLGKKLLEAARAGQDDEVRELLKAGADVNAKDEFGKTPLHLAAALGHLEIVEVLLKAGADVNAKGLWGETPLHVAAFAGHLEIVEVLLKAGADVNAKDTYGYTPLHLAASRGHLEIVEVLLKAGADVNAQDKSGKTPADLAADAGHEDIAEVLQKLN	123		0.097
